According to the DeepSol protein solubility set:

Assay: soluble on expression in E. coli; label from the status in PepcDB or PDB records

With “MTTVTKHKVLLIAGPTAVGKTALSLALAKQLNGEIISGDSMQVYRHLDIGTAKIMPEEQAGIPHHLIDIKNIDQRFTVAEFVSRTTALIIDISARGKLPIIVGGTGFYLQSLLAGYQFGPADNEPDMAYRQAWFDRAAVEGSDVAWMALKQRDPQAATAIAPANLVRVVRALEYVHTTGQLFSEQADTHGDTLDAYTLCLTAERALLYTRINQRVDQMVAAGLEQEARWLFDQGGAMLPAGKGIGYHEWFPYFNGEQTRDESIAKIKQDSRRYAKRQLTWFRNKMSVDWINLLEHPELRASIDQRLASWLSLEHHHHHH” the “soluble on expression in E. coli” value was “soluble”.

With “MSLDTTALPHTTFEGIPLDGKNKQDIQKIVQQKVEELNKKSLNYVFENNTQTYTWKDLGVEYKEKDIVANIFKEQQGNIIDRYNMRKKAIHGELKREYKLKPQLNSTAYEAFMEDKYNETLKNPVNAELNISGTTVNISESQNGEKIDKEQLAILTKQAIAANTQNIKLPIASIKPERSTEDIQNMGIKQVIAEYSTPMTGRNGSQSFNVNKSANTLSGAIVAPDETFSFNGRVGITDAAHGYKSAAVYLQGKVVQSAGGGVCQVSSTLYGAVLRADLGVVARSNHSMPVHYLPLGQDAAVADYGPDLKFKNNTGHYIYIQAFSDGNRITTRIFGTPTGKNVEVSSKVISNTGNKITAVTYKKVTKDGQVISNGQISKSVYKKEGHHHHHH” the “soluble on expression in E. coli” value was “not soluble”.

With “MDFYYLPGSAPCRAVQMTAAAVGVELNLKLTDLMKGEHMKPEFLKLNPQHCIPTLVDNGFALWESRAIQIYLAEKYGKDDKLYPKDPQKRAVVNQRLYFDMGTLYQRFADYHYPQIFAKQPANPENEKKMKDAVGFLNTFLEGQEYAAGNDLTIADLSLAATIATYEVAGFDFAPYPNVAAWFARCKANAPGYALNQAGADEFKAKFLS” the “soluble on expression in E. coli” value was “soluble”.

With “IVMADWLKIRGTLKSWTKLWCVLKPGVLLIYKTQKNGQWVGTVLLNACEIIERPSKKDGFCFKLFHPLEQSIWAVKGPKGEAVGSITQPLPSSYLIIRATSESDGRCWMDALELALK” the “soluble on expression in E. coli” value was “soluble”.

With “MAKLFFRYAAMNSGKSTQLLQIANNYESMDKKVALYTSAIDDRYGVGMITSRLNIQRESNTFDAGFDFLAHDYGDTACVLVDEAQFMTPEQAQQLHRLAHKRNIPVICFGLRTDFQGHPFPGSAWLLSLADDVEEIKTICHCGRKATMHIRIDGDGRRVKEGPQVEIGGEARYRAVCGRCFHHDLEHHHHHH” the “soluble on expression in E. coli” value was “soluble”.

For “MLRVLSRQAFSMVRAANFSASASSAGGGGLSDEVRKRIDGIVKKDDVVVFMKGTQQEPACGFSRNVKLVLDFHNVKFQDYNVLTDQELREGVKIFSEWPTIPQVYVKGEFVGGCDILISMHKDGEISDFLDEKGISNKYGKQ”, the “soluble on expression in E. coli” value was “not soluble”.

For “MGSDKIHHHHHHMEVEITITVRKVRIPEDVAVLEIFGQYDKRARYLKKLFNVEFAVRDSEILIKGMDEKSVDAAHRVLDEIISITRDGHLLDWTEFEYLVERVSNSESVKEVYSNNSKGLIIGKKVKPKTLGQKKYLEAVEKNDVVFVIGPAGTGKTYLAVAVALDYLKMGKVNRIILTRPAVEAGEKLGYLPGDLSEKVEPYLRPLYDAIIDITSPDKFNSYRERGIIEIVPLAYMRGRTLNNSFIILDEAQNTTYQQMKMFLTRLGFNSKAVITGDITQVDIEKEKSGLIECQKILEGISGIEFVYLNESDVVRHPLVKKIIKAYEEYERSRKS”, the “soluble on expression in E. coli” value was “not soluble”.

With “MGSDKIHHHHHHMLNMDFSRRVVIRTHEQHWVPSPAAGVERKPLAREEAERGHATSVVRYKPGSSFSTHEHPLGEEILVLEGVFSDETGHYPAGTYIRNPPGSSHAPFSEEGCTLLVKLHQFDPRDTATVRIDTNSGHWLPGIGGLQVMPLHEFEHERVALVKWPPNEAFQPHRHFGGEEIFVLSGEFRDEHGRYPAGSWIRSPHMSQHHPFVEQETVIWVKTGHLPVNHSPET” the “soluble on expression in E. coli” value was “not soluble”.

In the case of “MAMKERYLIIDGYNMIGQSPTLSAIAKENLEEARMQLIDAIANYNAVISDEIICVFDAYDQSGVEREYMYHGVKTIFTKEKETADSFIERYVYELYDKHTKHITVVTSDMSEQHAIFGSGAYRISSREMWRDLKENEIDVSKSLDDISENKPRTRIPLSSEILAEFEKIRRGHHKKLEHHHHHH”, the “soluble on expression in E. coli” value was “not soluble”.

For “MSLRGGETLEYDPDVLDENVEIEVGDVVEIKKFEKTEVYVSGYVSRPGVYEISPKENVTLEKLLSMAGGIKGTLEEVDSIVVTRDGSVITLSPNNLDFSVKPGDVVNVKEFVPKKAYVLGYVRNPGLYTFGKNEAFTLRNLIAKAGGFVDEGQVVSVKVAGKEYSEGHHHHHH”, the “soluble on expression in E. coli” value was “soluble”.

In the case of “MKRGEELPPLEIEVTRTLIVAGAIASRDYQDVHHDAESARRRGSPDIFMNILTTNGLVGRYITDHFGPGAVLRKVAIRLGAPNYPGDTMVLTGTVVEVEGDTATVKVIGANGIGTHVRGTVTVTVPPGSASLEHHHHHH”, the “soluble on expression in E. coli” value was “not soluble”.

In the case of “GPGSMMREAGRQRRRNADSDESSSEDEQQQTTTTVQETTAAAPPARVRAKAPAAAVVSAPSMTLHADPTATQVTAPSAVSAETADSEGGSNEDAPSSAAAAAPPNEFSEEMEAIDYDALTYAALLDIMNRASRPVIEELMAQREQQVESTMQQQQNQRVERFLDVATTSSATAAEANGSSAEEEAAEGYRYNTMLTRLFEALNRNNEGSAMTERNQLPVPILERMGKKKTVIANFGRICDAFHRPMEDVKDFIEKELSIRGNLDSNNALILKFEIRKQTDFDRVLIKYLDEYVKCNSCHRIDTTLTKDGRRLELRCNVCTATRTVTAAGTATFSAQIEKRSRQRAAMIL”, the “soluble on expression in E. coli” value was “soluble”.

With “MAKVVSKANQSQGMLMFKLTLQQNFAIGTLKVREIVPYMPTTKIPYSHHHVIGTVTIRDLTVPVIDMSAAVGFRPITQEEYKNCYLIVTDCLRTVVAFMVRSIEKIIECDWKAIETPPASAGKNIFVTGITRYGDQTVQMLDVELLLSKIYPQYENANIPMLTDVERERLKA” the “soluble on expression in E. coli” value was “not soluble”.

With “MFKILLALCIVGCSFAAPIHGDVDDELLGLAWEAAATSVNNGNRGKFWVPIEIQSSDKNGAVTNLVVVFQESWCSVEEGNDLEDVCESMCPVYYGGAKATYRVTATESNGGSDFESVRIE” the “soluble on expression in E. coli” value was “not soluble”.

In the case of “MTKKYSRFLPSEKSFNIDNFPYYWVTQVHSQYVHNIDNVLKRYGLDNSRRRILLALNIKQNASVSELSEMIISKMSTTTKIVYRLKDEGFVNTYSCENDARITRVNLTEQGKEMIHKINSLTGAVLEQSFEGLTPLQIEKMIDGLKIIFKNLSS”, the “soluble on expression in E. coli” value was “not soluble”.

For “MILDSQLAQQIVDRTMAIIGYNINVMNQAGVIIGSGEKNRIGQVHDGAILALKHGDSVELTAESCVALKGVKPGINMVLRNQQQVVGIVGITGEPKDIRDFANLVKMSAEMIIEQAALVEQLQWDRRHREEFISAWIHNTLSAAELDAWAARLSIDLSKPRVAVVIAFRQPKSGQSLDQIRQVVELLEHPERDNLVAVVSMQEIVVLKPCRTPEHWTSEYESLRIDKLMARLKAYDITGYDIALGQLFINPNAIHLSYQSAKQVLRIGQVRQPEKQKHLYEELRLPVLLLPLNEGWQGEQWRRVMQELQTQDKSGQLVKTLKGLFAANGNLNLCAQQLFIHRNTLRYRLEKITEITGIETNSLLGLAELYIAYQLTSYD”, the “soluble on expression in E. coli” value was “soluble”.

For “GIIEAHCHVGIQEEKRGFEGNDCNEMTNPVTPYLRALDGINPMDSAFYTALTAGITGIMVGPGSANVVGGQWMFLKTYGRAIDKMVVLQPSAMKIAFGENPKANYDKKNMMPSTRIAIAAMLREELFEAQQYYEKRKNAEKSGDSFNKEFRKECWVPVFDKKIPLKAHVHRADDILTAIRIAKEFNLNLTLDHCTEGHLVAKEIKESGFPAIVGPTLTSRNKIETQYADFKTAGILHNEGVKVAITTDHPVTRIQDLLICAGLAAKEGLGIEEGLKAITINPAEICNVANRVGSIEVNKDADIAIFDGNPMETFTKTMYTIINGEIVY”, the “soluble on expression in E. coli” value was “not soluble”.

In the case of “MGSDKIHHHHHHMVVLMTKPGTSDFVWNGIPLSMELNLWNIKEYSGSVAMKFDGEKITFDADIQNLSPKEPERYVLGYPEFYYGYKPWENHTAEGSKLPVPVSSMKSFSVEVSFDIHHEPSLPLNFAMETWLTREKYQTEASIGDVEIMVWFYFNNLTPGGEKIEEFTIPFVLNGESVEGTWELWLAEWGWDYLAFRLKDPVKKGRVKFDVRHFLDAAGKALSSSARVKDFEDLYFTVWEIGTEFGSPETKSAQFGWKFENFSIDLEVRE”, the “soluble on expression in E. coli” value was “not soluble”.

For “MKLKITLYSVCLLMLLAACQQDGPTPEPSVGSRTVLVYMIAQNSLAPLASADIEEMKEGMRQVDATSGNLLVYIDDYSAPRLIRLGKDKKGKVVEETIENYPEQNSADANVMKKVISTAFNQYKAEKYGMVFWSHGEGWIPSPAKTRWFGQDGNNYMDIADLHAALQVAPDLDFLFFDACFMEAVEVAYALRDCGSYLISSPTEIPGPGAPYQTVVPAMFSAENAALKIASCYYDYYQSRYNDGIGMSNEDWTGGVSVGVAKMSELENLAVATSKVLPRYITGKQNFDLSGVMCYDRRTDKQYYYDLDRFIYQITAGNGDYDSWREAFDKVMVYWKSTPRNYSAYAGMFTMNQDAKGLSTYIPRMSAPSLNTSYQQTEWYKVSGWADTGWYKNLEHHHHHH”, the “soluble on expression in E. coli” value was “not soluble”.

For “NTKDEAYNVATQATYAVAEQQTGSGDVVAVDDNVQMSKVSTVTINVLGNDIIADGVSVEISAMSAPSKGTVKLLSDGSIQYTPAKRFKNQDSFS”, the “soluble on expression in E. coli” value was “not soluble”.

With “MKETTIYGRLVMAVKNTAQVVIGGKIITLGGYESEEYFQKVASYINNKIAELSEMPGYTRQPVETKHTLLSLNVTDDYFKAKKQAEIFEQDLQQKDQEMYELKHELIALRMKIEETEKNAQEAQQQKELLEGKVKELNDEIDKLLK” the “soluble on expression in E. coli” value was “not soluble”.

In the case of “MGSSHHHHHHSSGLVPRGSHMLDFNIEGLIPKNMEKRGELVLNEYLKEIEDVFNHRKIPENGIDDEKIKLFLKFLSMMDTDKDPKSVRIGEREARTYSKIHEELSSGFCHGIGRSGNLVDPQPKASGASIMYALTNKILESFFKQLGLNVHAIATPISTGMSISLCLSAARKKYGSNVVIYPYASHKSPIKAVSFVGMNMRLVETVLDGDRVYVPVEDIENAIKKEIELGNRPCVLSTLTFFPPRNSDDIVEIAKICENYDIPHIINGAYAIQNNYYLEKLKKAFKYRVDAVVSSSDKNLLTPIGGGLVYSTDAEFIKEISLSYPGRASATPVVNTLVSLLSMGSKNYLELVKNQKNSKKLLDELLNDLSKKTGGKFLDVESPIASCISVNSDPVEIAAKLYNLRVTGPRGIKKTDHFGNCYLGTYTHDYIVMNAAIGVRTEDIVNSVSKLEKILL”, the “soluble on expression in E. coli” value was “soluble”.

With “MAKEKIIVENEQSVEEKLAALSKLQNTLSEIDKIKTLRGELPLEVQDLEDEIAGMQTRLENFTAGSKQLNQAVTTEKEKISTAKTLLEKYKKQLDEVRNNREFDNLSKEIEFQELEIQLSEKKIKEYNVEIQQRKTDIATLKEVLEEHSEVLAEKRGELDTIIAETKQEEEKLREKAKKLEAKIEPRLLTAFKRIRKAAHNGLAVVPVERDACGGCFNKIPPQKQLDVKLRKKIIVCEYCGRIMVDPEMGA” the “soluble on expression in E. coli” value was “not soluble”.

For “MTKFESSVKVIPYSQERVYEKLADLSNLEAIKDRLPEDKVKNMSFDTDTLSFNVDPVGQLTLRIIEREPSKCIKFETTNSPLPFNMWIQLVAVSEEECKLKVTIGLEINPFMKAMVQKPLNEGLEKMADMLSMIQYLEHHHHHH”, the “soluble on expression in E. coli” value was “soluble”.

In the case of “GPGSFIDPPSDQGMSDAFYQLLYFGAVDDGLQLTDFGRRMAVLPVDVCLARMLLMAPKHGCGADAAVVAAMLEAGNAFSRPPSRLAEAREAHARFDNADGDHVALFRVFHAYFKNQQNGKRFCYENYLRHQTLQQAVQVYKQLRRLMSQLMIPVQSTYIPEREYVDTVALRKAVLEGFFTQVAFLTPVAPITH”, the “soluble on expression in E. coli” value was “not soluble”.
